No end group written: not given here. *: point of attachment. Biotin = O=C1N[C@H]2[C@H](CS[C@H]2CCCCC(=O)*)N1
Target: T1, HLA-DR3 on VAVY cells (HLA-DRβ1-Arg74 positive) (Homo sapiens, UniProt P01903+P01911, A100K/A102G/A103R/A169T/F55Y/I96L/K41T/L162R/M171V/P40S/Q125H/Q178H/Q39Y/R42S/S66N/T106N/T262R/W38E/Y61H)
T1 construct: VAVY B-cell line that is homozygous for DR3 (confirmed to contain DRβ1-Arg74); host or cells: VAVY B-cell line
Assay: Tg.2098 peptide binding to VAVY cells, flow cytometry
Assay type: cell-based
Conditions: incubated without Ia (40% Captisol alone); biotinylated peptide
Experimental: VAVY cells (European Collection of Cell Cultures) were cultured in RPMI (ATCC, Manassas, Va.) supplied with 10% FBS (Sigma-Aldrich, St. Louis, Mo.), 1% Penicillin-Streptomycin (Corning, N.Y.), 2 mM glutamine (Corning, N.Y.) and […] ciprofloxacin hydrochloride (Hospira, Lake Forest, Ill.). Cells were grown at 37° C., 5% CO2 and passaged 1-2 times a week. Cells expressing DR2 (National Development and Research Institutes, Inc) were cultured using the same conditions as VAVY cells. N-terminal biotinylated peptide Tg.2098 was used to test for binding to VAVY cells which express HLA-DR3 on their surface (HLA-DRβ1-Arg74 positive). APC Streptavidin (BD Biosciences, Franklin Lakes, N.J.) was used to detect the biotinylated peptides. A scrambled peptide of Tg.2098 (scr2098) was used as a negative control. VAVY cells were seeded at 2.5×10^6 cells/mL in a 24-well plate (BD Biosciences) and pre-incubated for 7 hours with 0.025 mM of compound Ia or 40% Captisol (Ligand Pharmaceuticals, Inc, La Jolla, Calif.) [the vehicle used to dissolve test compound in this experiment], before 0.5 μM Tg.2098 was added. After 24 h incubation, cells were stained with PE mouse anti-human HLA-DR (BD Biosciences) and APC Streptavidin to detect binding of the peptide to VAVY cells and the inhibitory effect of Compound Ia. Inhibition was analyzed by flow cytometry. As a negative control, cells expressing HLA-DR2 were pre-incubated with example Ia or 40% Captisol, before biotinylated myelin basic protein (MBP) 87-99 (known binder to HLA-DR2) was added and incubated for 24 hours. HLA-DR2 cells were stained with PE mouse anti-human HLA-DR and APC Streptavidin to detect binding of biotinylated MBP87-99 to DR2 expressing cells and to assess the inhibitory effect of compound Ia on peptide binding. To confirm the ELISA results we performed binding inhibition studies using the VAVY B-cell line that is homozygous for DR3 (confirmed to contain DRβ1-Arg74). […]

T1 sequence (P01903 26-254, other chains not shown): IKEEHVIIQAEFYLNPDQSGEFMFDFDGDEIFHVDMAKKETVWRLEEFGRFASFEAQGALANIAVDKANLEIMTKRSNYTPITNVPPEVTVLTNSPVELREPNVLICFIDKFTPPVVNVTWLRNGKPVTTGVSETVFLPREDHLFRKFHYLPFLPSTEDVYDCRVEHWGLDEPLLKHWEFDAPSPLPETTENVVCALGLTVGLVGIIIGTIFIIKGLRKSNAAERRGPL

Row | binding of peptide to HLA-DR3-positive VAVY cells [%] | Sequence
1 | 42.7 | LSSVVVDPSIRHFDV (Biotin-LSSVVVDPSIRHFDV) [Tg.2098]
2 | 2.1 | HDLFSRIDSSVVVVP [scr.2098]
